Numbered stars: 1 amine (or outer) side, 2 acyl side, 3 side chain; on linkers, the order of the positions; unused ones are H or OH. Bridge positions count the residues as written; N and C are the ends. Square brackets hold non-standard residues; d marks the D form. Side chains are listed from the residue outwards. Ends that are not written are not given here. * marks the point of attachment. C20 diacid = O=C(O)CCCCCCCCCCCCCCCCCCC(=O)*; γGlu = O=C(O)[C@H](CCC(=O)[*:2])N[*:1]
T1: human amylin receptor (Amylin 3(a) receptor: human calcitonin receptor co-expressed with RAMP-3) (human, UniProt P30988 25-474; O60896 24-148, limits assumed)
T1 construct: whole, on cells; Used as cell membranes prepared from the Amylin 3(a)/CRE-luc BHK cells (Assay V); the complex is called the human amylin receptor; also called hAmylin-R; hAmylinR
T1 sequence (looked up) 1: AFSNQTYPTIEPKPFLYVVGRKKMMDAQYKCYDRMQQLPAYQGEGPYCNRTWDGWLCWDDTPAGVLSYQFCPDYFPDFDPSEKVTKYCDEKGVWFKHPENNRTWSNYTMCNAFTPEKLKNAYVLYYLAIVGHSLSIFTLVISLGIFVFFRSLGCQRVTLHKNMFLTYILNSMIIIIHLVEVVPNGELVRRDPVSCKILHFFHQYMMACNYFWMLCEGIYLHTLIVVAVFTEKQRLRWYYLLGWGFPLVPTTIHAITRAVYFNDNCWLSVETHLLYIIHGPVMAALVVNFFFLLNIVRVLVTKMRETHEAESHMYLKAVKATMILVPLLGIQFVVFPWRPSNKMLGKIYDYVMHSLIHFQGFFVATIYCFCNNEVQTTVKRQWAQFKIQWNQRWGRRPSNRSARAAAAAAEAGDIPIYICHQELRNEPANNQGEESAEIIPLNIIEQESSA
T1 sequence (looked up) 2: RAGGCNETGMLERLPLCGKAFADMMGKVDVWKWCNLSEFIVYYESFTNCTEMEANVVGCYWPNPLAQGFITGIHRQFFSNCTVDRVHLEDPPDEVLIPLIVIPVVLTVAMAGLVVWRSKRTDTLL


Target: T1, human amylin receptor (Amylin 3(a) …)
Test: SPA competition binding, displacement of 125I-rat amylin from membranes of BHK cells with human calcitonin receptor + RAMP-3 (Assay V)
Summary of the method: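 One-site competition analysis of SPA counts yielded IC₅₀ as a measure of affinity. Membranes were at 35 ng/μL final; incubation was 120 min at 25° C, pH 7.4.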

Binder	IC50
K([γGlu-γGlu-C20 diacid])CNTATCATQRLANFLRHSSPNFGAIPSSTPVGPRTY-NH2 (disulfide 2-7; N-terminus assumed; SMILES CC[C@H](C)[C@H](NC(=O)[C@H](C)NC(=O)CNC(=O)[C@H](Cc1ccccc1)NC(=O)[C@H](CC(N)=O)NC(=O)[C@@H]1CCCN1C(=O)[C@H](CO)NC(=O)[C@H](CO)NC(=O)[C@H](Cc1c[nH]cn1)NC(=O)[C@H](CCCNC(=N)N)NC(=O)[C@H](CC(C)C)NC(=O)[C@H](Cc1ccccc1)NC(=O)[C@H](CC(N)=O)NC(=O)[C@H](C)NC(=O)[C@H](CC(C)C)NC(=O)[C@H](CCCNC(=N)N)NC(=O)[C@H](CCC(N)=O)NC(=O)[C@@H](NC(=O)[C@H](C)NC(=O)[C@@H]1CSSC[C@H](NC(=O)[C@@H](N)CCCCNC(=O)CC[C@H](NC(=O)CC[C@H](NC(=O)CCCCCCCCCCCCCCCCCCC(=O)O)C(=O)O)C(=O)O)C(=O)N[C@@H](CC(N)=O)C(=O)N[C@@H]([C@@H](C)O)C(=O)N[C@@H](C)C(=O)N[C@@H]([C@@H](C)O)C(=O)N1)[C@@H](C)O)C(=O)N1CCC[C@H]1C(=O)N[C@@H](CO)C(=O)N[C@@H](CO)C(=O)N[C@H](C(=O)N1CCC[C@H]1C(=O)N[C@H](C(=O)NCC(=O)N1CCC[C@H]1C(=O)N[C@@H](CCCNC(=N)N)C(=O)N[C@H](C(=O)N[C@@H](Cc1ccc(O)cc1)C(N)=O)[C@@H](C)O)C(C)C)[C@@H](C)O, modifications are with respect to human amylin)	0.88 nM
K([γGlu-γGlu-C20 diacid])CNTATCATQRLAEFLRHSSPNFGAIPSSTNVGRETY-NH2 (disulfide 2-7; N-terminus assumed; SMILES CC[C@H](C)[C@H](NC(=O)[C@H](C)NC(=O)CNC(=O)[C@H](Cc1ccccc1)NC(=O)[C@H](CC(N)=O)NC(=O)[C@@H]1CCCN1C(=O)[C@H](CO)NC(=O)[C@H](CO)NC(=O)[C@H](Cc1c[nH]cn1)NC(=O)[C@H](CCCNC(=N)N)NC(=O)[C@H](CC(C)C)NC(=O)[C@H](Cc1ccccc1)NC(=O)[C@H](CCC(=O)O)NC(=O)[C@H](C)NC(=O)[C@H](CC(C)C)NC(=O)[C@H](CCCNC(=N)N)NC(=O)[C@H](CCC(N)=O)NC(=O)[C@@H](NC(=O)[C@H](C)NC(=O)[C@@H]1CSSC[C@H](NC(=O)[C@@H](N)CCCCNC(=O)CC[C@H](NC(=O)CC[C@H](NC(=O)CCCCCCCCCCCCCCCCCCC(=O)O)C(=O)O)C(=O)O)C(=O)N[C@@H](CC(N)=O)C(=O)N[C@@H]([C@@H](C)O)C(=O)N[C@@H](C)C(=O)N[C@@H]([C@@H](C)O)C(=O)N1)[C@@H](C)O)C(=O)N1CCC[C@H]1C(=O)N[C@@H](CO)C(=O)N[C@@H](CO)C(=O)N[C@H](C(=O)N[C@@H](CC(N)=O)C(=O)N[C@H](C(=O)NCC(=O)N[C@@H](CCCNC(=N)N)C(=O)N[C@@H](CCC(=O)O)C(=O)N[C@H](C(=O)N[C@@H](Cc1ccc(O)cc1)C(N)=O)[C@@H](C)O)C(C)C)[C@@H](C)O, modifications are with respect to human amylin)	0.957 nM
K([γGlu-γGlu-C20 diacid])CNTATCATQRLADFLRHSSPNFGAIPSSTNVGPRTY-NH2 (disulfide 2-7, modifications are with respect to human amylin; also called compound 130)	0.453 nM
K([γGlu-γGlu-C20 diacid])CNTATCATQRLADFLRHSSPNFGAIPSSTNVGPETY-NH2 (disulfide 2-7, modifications are with respect to human amylin)	0.172 nM
K([γGlu-γGlu-C20 diacid])CNTATCATQRLAEFLRHSSPNFGAIPSSTNVGHETY-NH2 (disulfide 2-7; N-terminus assumed; SMILES CC[C@H](C)[C@H](NC(=O)[C@H](C)NC(=O)CNC(=O)[C@H](Cc1ccccc1)NC(=O)[C@H](CC(N)=O)NC(=O)[C@@H]1CCCN1C(=O)[C@H](CO)NC(=O)[C@H](CO)NC(=O)[C@H](Cc1c[nH]cn1)NC(=O)[C@H](CCCNC(=N)N)NC(=O)[C@H](CC(C)C)NC(=O)[C@H](Cc1ccccc1)NC(=O)[C@H](CCC(=O)O)NC(=O)[C@H](C)NC(=O)[C@H](CC(C)C)NC(=O)[C@H](CCCNC(=N)N)NC(=O)[C@H](CCC(N)=O)NC(=O)[C@@H](NC(=O)[C@H](C)NC(=O)[C@@H]1CSSC[C@H](NC(=O)[C@@H](N)CCCCNC(=O)CC[C@H](NC(=O)CC[C@H](NC(=O)CCCCCCCCCCCCCCCCCCC(=O)O)C(=O)O)C(=O)O)C(=O)N[C@@H](CC(N)=O)C(=O)N[C@@H]([C@@H](C)O)C(=O)N[C@@H](C)C(=O)N[C@@H]([C@@H](C)O)C(=O)N1)[C@@H](C)O)C(=O)N1CCC[C@H]1C(=O)N[C@@H](CO)C(=O)N[C@@H](CO)C(=O)N[C@H](C(=O)N[C@@H](CC(N)=O)C(=O)N[C@H](C(=O)NCC(=O)N[C@@H](Cc1c[nH]cn1)C(=O)N[C@@H](CCC(=O)O)C(=O)N[C@H](C(=O)N[C@@H](Cc1ccc(O)cc1)C(N)=O)[C@@H](C)O)C(C)C)[C@@H](C)O, modifications are with respect to human amylin)	0.525 nM
K([γGlu-γGlu-C20 diacid])CNTATCATQRLA[dD]FLRHSSPNFGAIPSSTNVGSRTY-NH2 (disulfide 2-7; N-terminus assumed; SMILES CC[C@H](C)[C@H](NC(=O)[C@H](C)NC(=O)CNC(=O)[C@H](Cc1ccccc1)NC(=O)[C@H](CC(N)=O)NC(=O)[C@@H]1CCCN1C(=O)[C@H](CO)NC(=O)[C@H](CO)NC(=O)[C@H](Cc1c[nH]cn1)NC(=O)[C@H](CCCNC(=N)N)NC(=O)[C@H](CC(C)C)NC(=O)[C@H](Cc1ccccc1)NC(=O)[C@@H](CC(=O)O)NC(=O)[C@H](C)NC(=O)[C@H](CC(C)C)NC(=O)[C@H](CCCNC(=N)N)NC(=O)[C@H](CCC(N)=O)NC(=O)[C@@H](NC(=O)[C@H](C)NC(=O)[C@@H]1CSSC[C@H](NC(=O)[C@@H](N)CCCCNC(=O)CC[C@H](NC(=O)CC[C@H](NC(=O)CCCCCCCCCCCCCCCCCCC(=O)O)C(=O)O)C(=O)O)C(=O)N[C@@H](CC(N)=O)C(=O)N[C@@H]([C@@H](C)O)C(=O)N[C@@H](C)C(=O)N[C@@H]([C@@H](C)O)C(=O)N1)[C@@H](C)O)C(=O)N1CCC[C@H]1C(=O)N[C@@H](CO)C(=O)N[C@@H](CO)C(=O)N[C@H](C(=O)N[C@@H](CC(N)=O)C(=O)N[C@H](C(=O)NCC(=O)N[C@@H](CO)C(=O)N[C@@H](CCCNC(=N)N)C(=O)N[C@H](C(=O)N[C@@H](Cc1ccc(O)cc1)C(N)=O)[C@@H](C)O)C(C)C)[C@@H](C)O)	0.365 nM

Second part, the binder after the results:

IC50	Binder
0.377 nM	K([γGlu-γGlu-C20 diacid])CNTATCATQRLAEFLRHSSPNFGAIPSSTNVGPHTY-NH2 (disulfide 2-7 (inferred), modifications are with respect to human amylin)
0.326 nM	K([γGlu-γGlu-C20 diacid])CNTATCATQRLAEFLRHSSPNFGAIPSSTNVGPRTY-NH2 (disulfide 2-7; N-terminus assumed; SMILES CC[C@H](C)[C@H](NC(=O)[C@H](C)NC(=O)CNC(=O)[C@H](Cc1ccccc1)NC(=O)[C@H](CC(N)=O)NC(=O)[C@@H]1CCCN1C(=O)[C@H](CO)NC(=O)[C@H](CO)NC(=O)[C@H](Cc1c[nH]cn1)NC(=O)[C@H](CCCNC(=N)N)NC(=O)[C@H](CC(C)C)NC(=O)[C@H](Cc1ccccc1)NC(=O)[C@H](CCC(=O)O)NC(=O)[C@H](C)NC(=O)[C@H](CC(C)C)NC(=O)[C@H](CCCNC(=N)N)NC(=O)[C@H](CCC(N)=O)NC(=O)[C@@H](NC(=O)[C@H](C)NC(=O)[C@@H]1CSSC[C@H](NC(=O)[C@@H](N)CCCCNC(=O)CC[C@H](NC(=O)CC[C@H](NC(=O)CCCCCCCCCCCCCCCCCCC(=O)O)C(=O)O)C(=O)O)C(=O)N[C@@H](CC(N)=O)C(=O)N[C@@H]([C@@H](C)O)C(=O)N[C@@H](C)C(=O)N[C@@H]([C@@H](C)O)C(=O)N1)[C@@H](C)O)C(=O)N1CCC[C@H]1C(=O)N[C@@H](CO)C(=O)N[C@@H](CO)C(=O)N[C@H](C(=O)N[C@@H](CC(N)=O)C(=O)N[C@H](C(=O)NCC(=O)N1CCC[C@H]1C(=O)N[C@@H](CCCNC(=N)N)C(=O)N[C@H](C(=O)N[C@@H](Cc1ccc(O)cc1)C(N)=O)[C@@H](C)O)C(C)C)[C@@H](C)O, modifications are with respect to human amylin; also called compound 110)

— patent US20140087995A1 (published 2014)
